We go through five molecules from paper PMC3642234 (Biochimica et biophysica acta, 2013).

Experiment [1] has as its target recombinant human pancreatic triglyceride lipase (human) (UniProt P16233). Briefly: co-sedimentation.
Experiment [2] addresses T1, recombinant human pancreatic triglyceride lipase (human, UniProt P16233 17-465).
T1 sequence: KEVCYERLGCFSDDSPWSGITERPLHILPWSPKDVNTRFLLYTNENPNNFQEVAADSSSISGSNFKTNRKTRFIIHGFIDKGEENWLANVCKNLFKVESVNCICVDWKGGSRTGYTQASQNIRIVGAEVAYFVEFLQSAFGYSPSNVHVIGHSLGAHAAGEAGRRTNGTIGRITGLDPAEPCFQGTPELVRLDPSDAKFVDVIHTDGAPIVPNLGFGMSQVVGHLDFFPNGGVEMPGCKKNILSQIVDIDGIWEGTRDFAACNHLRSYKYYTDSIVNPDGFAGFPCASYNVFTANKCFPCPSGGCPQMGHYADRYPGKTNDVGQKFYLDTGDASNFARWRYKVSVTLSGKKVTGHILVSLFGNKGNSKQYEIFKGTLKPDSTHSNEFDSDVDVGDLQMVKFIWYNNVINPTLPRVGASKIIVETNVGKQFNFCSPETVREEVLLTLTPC
Briefly: co-sedimentation.

On to L16A human colipase (natural protein), for which the apparent Kd (colipase at half-maximal absorption of PTL to tributyrin emulsion) in experiment [1] is 25.7 nM.

In the case of F84A human colipase (natural protein), in experiment [1], the apparent Kd (colipase at half-maximal absorption of PTL to tributyrin emulsion) stood at 108 nM.

As for Y55A human colipase (natural protein), the apparent Kd (colipase at half-maximal absorption of PTL to tributyrin emulsion) in experiment [1] was found to be 78.6 nM.

As for I79A human colipase (natural protein), the apparent Kd (colipase at half-maximal absorption of PTL to tributyrin emulsion) in experiment [1] was determined as 36 nM.

B1: wild-type human colipase (natural protein, UniProt P04118 18-112, looked up)
chain: APGPRGIIINLENGELCMNSAQCKSNCCQHSSALGLARCTSMASENSECSVKTLYGIYYKCPCERGLTCEGDKTIVGSITNTNFGICHDAGRSKQ
Consider B1, for which, in experiment [2], the “apparent Kd (colipase at half-maximal absorption of PTL to tributyrin emulsion)” value was determined as 22.8 nM.
